Values of other authors in publication PMC4250281.

Target: 14-3-3 zeta (Homo sapiens) (UniProt P63104)
UniProt P63104, sequence (P63104 whole entry): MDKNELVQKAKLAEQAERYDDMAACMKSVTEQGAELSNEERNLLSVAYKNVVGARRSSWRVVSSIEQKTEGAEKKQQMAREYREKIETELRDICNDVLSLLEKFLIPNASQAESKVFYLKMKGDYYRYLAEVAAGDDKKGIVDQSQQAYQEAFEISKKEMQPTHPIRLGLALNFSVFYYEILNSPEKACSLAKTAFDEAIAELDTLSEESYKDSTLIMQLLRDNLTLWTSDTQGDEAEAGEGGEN

Kd: 122 nM
Substance: Raf-1
